Assay results from IntAct's records for PubMed 16866877.

B1: Brefeldin A-inhibited guanine nucleotide-exchange protein 2 (Homo sapiens), Q9Y6D5 (parent)
chain: MQESQTKSMFVSRALEKILADKEVKRPQHSQLRRACQVALDEIKAEIEKQRLGTAAPPKANFIEADKYFLPFELACQSKSPRVVSTSLDCLQKLIAYGHITGNAPDSGAPGKRLIDRIVETICSCFQGPQTDEGVQLQIIKALLTAVTSPHIEIHEGTILQTVRTCYNIYLASKNLINQTTAKATLTQMLNVIFTRMENQVLQEARELEKPIQSKPQSPVIQAAAVSPKFVRLKHSQAQSKPTTPEKTDLTNGEHARSDSGKVSTENGDAPRERGSSLSGTDDGAQEVVKDILEDVVTSAIKEAAEKHGLTEPERVLGELECQECAIPPGVDENSQTNGIADDRQSLSSADNLESDAQGHQVAARFSHVLQKDAFLVFRSLCKLSMKPLGEGPPDPKSHELRSKVVSLQLLLSVLQNAGPVFRTHEMFINAIKQYLCVALSKNGVSSVPDVFELSLAIFLTLLSNFKMHLKMQIEVFFKEIFLNILETSTSSFEHRWMVIQTLTRICADAQCVVDIYVNYDCDLNAANIFERLVNDLSKIAQGRSGHELGMTPLQELSLRKKGLECLVSILKCMVEWSKDLYVNPNHQTSLGQERLTDQEIGDGKGLDMARRCSVTSMESTVSSGTQTTVQDDPEQFEVIKQQKEIIEHGIELFNKKPKRGIQFLQEQGMLGTSVEDIAQFLHQEERLDSTQVGDFLGDSARFNKEVMYAYVDQLDFCEKEFVSALRTFLEGFRLPGEAQKIDRLMEKFAARYIECNQGQTLFASADTAYVLAYSIIMLTTDLHSPQVKNKMTKEQYIKMNRGINDSKDLPEEYLSSIYEEIEGKKIAMKETKELTIATKSTKQNVASEKQRRLLYNLEMEQMAKTAKALMEAVSHAKAPFTSATHLDHVRPMFKLVWTPLLAAYSIGLQNCDDTEVASLCLEGIRCAIRIACIFGMQLERDAYVQALARFSLLTASSSITEMKQKNIDTIKTLITVAHTDGNYLGNSWHEILKCISQLELAQLIGTGVKTRYLSGSGREREGSLKGHTLAGEEFMGLGLGNLVSGGVDKRQMASFQESVGETSSQSVVVAVDRIFTGSTRLDGNAIVDFVRWLCAVSMDELASPHHPRMFSLQKIVEISYYNMNRIRLQWSRIWHVIGDHFNKVGCNPNEDVAIFAVDSLRQLSMKFLEKGELANFRFQKDFLRPFEHIMKKNRSPTIRDMAIRCIAQMVNSQAANIRSGWKNIFAVFHQAASDHDGNIVELAFQTTCHIVTTIFQHHFPAAIDSFQDAVKCLSEFACNAAFPDTSMEAIRLIRFCGKYVSERPRVLQEYTSDDMNVAPGDRVWVRGWFPILFELSCIINRCKLDVRTRGLTVMFEIMKSYGHTFEKHWWQDLFRIVFRIFDNMKLPEQLSEKSEWMTTTCNHALYAICDVFTQFYEALNEVLLSDVFAQLQWCVKQDNEQLARSGTNCLENLVISNGEKFSPEVWDETCNCMLDIFKTTIPHVLLTWRPVGMEEDSSEKHLDVDLDRQSLSSIDKNPSERGQSQLSNPTDDSWKGRPYANQKLFASLLIKCVVQLELIQTIDNIVFYPATSKKEDAEHMVAAQQDTLDADIHIETEDQGMYKYMSSQHLFKLLDCLQESHSFSKAFNSNYEQRTVLWRAGFKGKSKPNLLKQETSSLACCLRILFRMYVDENRRDSWEEIQQRLLTVCSEALAYFITVNSESHREAWTSLLLLLLTKTLKINDEKFKAHASMYYPYLCEIMQFDLIPELRAVLRKFFLRIGVVYKIWIPEEPSQVPAALSPVW
partner: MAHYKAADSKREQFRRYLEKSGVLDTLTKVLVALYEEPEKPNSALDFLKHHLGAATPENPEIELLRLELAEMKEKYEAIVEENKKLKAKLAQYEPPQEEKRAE

Variants of: B1
Conditions: with mycbp_human MYCBP

Row | effect of a mutation on the interaction | Variant
1 | decreasing interaction | I292P
